In US20230114801A1 (SYSTIMMUNE, published 2023):

How the values were obtained:
[1] = molecular target: T1, human HER3 (human, UniProt P21860 20-643); experiment: BLI (Octet), binder on AHC sensor, 100 nM human antigen, 1:1 fit
T1 construct: Soluble antigen in Octet; bought; also called human HER3 (Acro ER3-H5223)

[2] = molecular target: T2, human 4-1BB (human, UniProt Q07011 24-186, limits assumed); experiment: as above
T2 construct: Soluble antigen in Octet; construct not described

[3] = molecular target: T3, human EGFR (human, UniProt P00533 25-645, limits assumed); experiment: as above
T3 construct: Soluble antigen in Octet; construct not described

[4] = molecular target: T4, human CD3 (human, UniProt P07766 23-126; P04234 22-105); experiment: as above
T4 construct: also called His-tagged human CD3; human CD3 (Acro CDD-H52W1)

[5] = molecular target: T4, human CD3; experiment: BLI (Octet), binder on AHC sensor, 100 nM human CD3, 1:1 fit
[6] = molecular target: T3, human EGFR; experiment: BLI (Octet), binder on AHC sensor, 200 nM human EGFR, 1:1 fit
[7] = molecular target: T1, human HER3; experiment: BLI (Octet), binder on AHC sensor, 200 nM human HER3, 1:1 fit

Row | Kd [1] | Kd [2] | Kd [3] | Kd [4] | Kd [5] | Kd [6] | Kd [7] | Binder
1 | 185 nM | 17.8 nM | 8.9 nM | 20.3 nM |  |  |  | SI-75E1 (other, tetra-miniGNC; D1 αEGFR, D2 αHER3, D3 αCD3 (Fab), D4 α4-1BB) chain 1: EIVLTQSPSTLSVSPGERATFSCRASQSIGTNIHWYQQKPGKPPRLLIKYASESISGIPDRFSGSGSGTEFTLTISSVQSEDFAVYYCQQNNNWPTTFGPGTKLTVLGGGGSGGGGSGGGGSGGGGSQVQLQQSGPGLVKPSETLSITCTVSGFSLTNYGVHWIRQAPGKGLEWLGVIWSGGNTDYNTPFTSRFTITKDNSKNQVYFKLRSVRADDTAIYYCARALTYYDYEFAYWGQGTLVTVSSGGGGSGGGGSEVQLVESGGGLVQPGGSLRLSCAASGFTISTNAMSWVRQAPGKGLEWIGVITGRDITYYASWAKGRFTISRDNSKNTLYLQMNSLRAEDTAVYYCARDGGSSAITSNNIWGQGTLVTVSSASTKGPSVFPLAPSSKSTSGGTAALGCLVKDYFPEPVTVSWNSGALTSGVHTFPAVLQSSGLYSLSSVVTVPSSSLGTQTYICNVNHKPSNTKVDKRVEPKSCDKTHTCPPCPAPEAAGGPSVFLFPPKPKDTLMISRTPEVTCVVVDVSHEDPEVKFNWYVDGVEVHNAKTKPREEQYNSTYRVVSVLTVLHQDWLNGKEYKCAVSNKALPAPIEKTISKAKGQPREPQVYTLPPSRDELTKNQVSLSCAVKGFYPSDIAVEWESNGQPENNYKTTPPVLDSDGSFFLVSKLTVDKSRWQQGNVFSCSVMHEALHNHYTQKSLSLSPGGGGGSGGGGSDVVMTQSPSSVSASVGDRVTITCQASQNIRTYLSWYQQKPGKAPKLLIYAAANLASGVPSRFSGSGSGTDFTLTISDLEPGDAATYYCQSTYLGTDYVGGAFGGGTKLTVLGGGGSGGGGSGGGGSGGGGSEVQLVESGGGLVQPGGSLRLSCTASGFTISSYHMQWVRQAPGKGLEYIGTISSGGNVYYASSARGRFTISRPSSKNTVDLQMNSLRAEDTAVYYCARDSGYSDPMWGQGTLVTVSS chain 2: QSALTQPASVSGSPGQSITISCTGTSSDVGGYNFVSWYQQHPGKAPKLMIYDVSDRPSGVSDRFSGSKSGNTASLIISGLQADDEADYYCSSYGSSSTHVIFGGGTKVTVLGGGGSGGGGSGGGGSGGGGSQVQLQESGGGLVKPGGSLSLSCAASGFTFSSYWMSWVRQAPGKGLEWVANINRDGSASYYVDSVKGRFTISRDDAKNSLYLQMNSLRAEDTAVYYCARDRGVGYFDLWGRGTLVTVSSGGGGSGGGGSDVVMTQSPSTLSASVGDRVTINCQASESISSWLAWYQQKPGKAPKLLIYEASKLASGVPSRFSGSGSGTEFTLTISSLQPDDFATYYCQGYFYFISRTYVNSFGGGTKVEIKRTVAAPSVFIFPPSDEQLKSGTASVVCLLNNFYPREAKVQWKVDNALQSGNSQESVTEQDSKDSTYSLSSTLTLSKADYEKHKVYACEVTHQGLSSPVTKSFNRGECGGDKTHTCPPCPAPEAAGGPSVFLFPPKPKDTLMISRTPEVTCVVVDVSHEDPEVKFNWYVDGVEVHNAKTKPREEQYNSTYRVVSVLTVLHQDWLNGKEYKCAVSNKALPAPIEKTISKAKGQPREPQVYTLPPSRDELTKNQVSLWCLVKGFYPSDIAVEWESNGQPENNYKTTPPVLDSDGSFFLYSKLTVDKSRWQQGNVFSCSVMHEALHNRFTQKSLSLSPG
2 |  |  |  |  | 68 nM | 14.8 nM | 4.58 nM | SI-75X17 (other, tri-miniGNC; D1 αEGFR VHH, D2 αHER3 VHH, D3 αCD3* (Fab)) chain 1: EVQLQESGGGLVQAGDSLSLSCLVSGRSFNSYTMGWFRQAPGKEREFVAAILWSGPTTYYADSVKGRFTISRDNAKNTVYLQMNSLKPEDTAVYYCAAALGVLVLAPGNVYSYWGQGTQVTVSSGGGGSGGGGSQVQLQESGGRLVQPGEPLSLTCKTSGIDLSSNAIGWVRQAPGKGLEWIGVIFGSGNTYYASWAKGRFTISRSTSTVYLKMNSLRSEDTAIYYCARGGYSSDIWGQGTLVTVSSASTKGPSVFPLAPSSKSTSGGTAALGCLVKDYFPEPVTVSWNSGALTSGVHTFPAVLQSSGLYSLSSVVTVPSSSLGTQTYICNVNHKPSNTKVDKRVEPKSCDKTHTCPPCPAPEAAGGPSVFLFPPKPKDTLMISRTPEVTCVVVDVSHEDPEVKFNWYVDGVEVHNAKTKPREEQYNSTYRVVSVLTVLHQDWLNGKEYKCAVSNKALPAPIEKTISKAKGQPREPQVYTLPPSRDELTKNQVSLSCAVKGFYPSDIAVEWESNGQPENNYKTTPPVLDSDGSFFLVSKLTVDKSRWQQGNVFSCSVMHEALHNHYTQKSLSLSPG chain 2: QVQLVQSGGGLVQAGGSLSLSCAFSGRTFSMYTMGWFRQAPGKEREFVAANRGRGLSPDIADSVNGRFTISRDNAKNTLYLQMDSLKPEDTAVYYCAADLQYGSSWPQRSSAEYDYWGQGTTVTVSSGGGGSGGGGSDPQLTQSPSSLSATVGQRVTINCQSSQSVAKNNNLAWFQQKPGKPPKLLIYSASTLAAGVPSRFSGSGSGTQFTLTITRVQSEDFATYYCSARDSGNIQSFGGGTRVEIKRTVAAPSVFIFPPSDEQLKSGTASVVCLLNNFYPREAKVQWKVDNALQSGNSQESVTEQDSKDSTYSLSSTLTLSKADYEKHKVYACEVTHQGLSSPVTKSFNRGECGGDKTHTCPPCPAPEAAGGPSVFLFPPKPKDTLMISRTPEVTCVVVDVSHEDPEVKFNWYVDGVEVHNAKTKPREEQYNSTYRVVSVLTVLHQDWLNGKEYKCAVSNKALPAPIEKTISKAKGQPREPQVYTLPPSRDELTKNQVSLWCLVKGFYPSDIAVEWESNGQPENNYKTTPPVLDSDGSFFLYSKLTVDKSRWQQGNVFSCSVMHEALHNRFTQKSLSLSPG
3 |  |  |  |  | 64.4 nM | 20.6 nM | 10.5 nM | SI-75X19 (other, tri-miniGNC; D3 αCD3* (Fab), D4 αEGFR VHH, D5 αHER3 VHH) chain 1: QVQLQESGGRLVQPGEPLSLTCKTSGIDLSSNAIGWVRQAPGKGLEWIGVIFGSGNTYYASWAKGRFTISRSTSTVYLKMNSLRSEDTAIYYCARGGYSSDIWGQGTLVTVSSASTKGPSVFPLAPSSKSTSGGTAALGCLVKDYFPEPVTVSWNSGALTSGVHTFPAVLQSSGLYSLSSVVTVPSSSLGTQTYICNVNHKPSNTKVDKRVEPKSCDKTHTCPPCPAPEAAGGPSVFLFPPKPKDTLMISRTPEVTCVVVDVSHEDPEVKFNWYVDGVEVHNAKTKPREEQYNSTYRVVSVLTVLHQDWLNGKEYKCAVSNKALPAPIEKTISKAKGQPREPQVYTLPPSRDELTKNQVSLSCAVKGFYPSDIAVEWESNGQPENNYKTTPPVLDSDGSFFLVSKLTVDKSRWQQGNVFSCSVMHEALHNHYTQKSLSLSPGGGGGSGGGGSEVQLQESGGGLVQAGDSLSLSCLVSGRSFNSYTMGWFRQAPGKEREFVAAILWSGPTTYYADSVKGRFTISRDNAKNTVYLQMNSLKPEDTAVYYCAAALGVLVLAPGNVYSYWGQGTQVTVSS chain 2: DPQLTQSPSSLSATVGQRVTINCQSSQSVAKNNNLAWFQQKPGKPPKLLIYSASTLAAGVPSRFSGSGSGTQFTLTITRVQSEDFATYYCSARDSGNIQSFGGGTRVEIKRTVAAPSVFIFPPSDEQLKSGTASVVCLLNNFYPREAKVQWKVDNALQSGNSQESVTEQDSKDSTYSLSSTLTLSKADYEKHKVYACEVTHQGLSSPVTKSFNRGECGGDKTHTCPPCPAPEAAGGPSVFLFPPKPKDTLMISRTPEVTCVVVDVSHEDPEVKFNWYVDGVEVHNAKTKPREEQYNSTYRVVSVLTVLHQDWLNGKEYKCAVSNKALPAPIEKTISKAKGQPREPQVYTLPPSRDELTKNQVSLWCLVKGFYPSDIAVEWESNGQPENNYKTTPPVLDSDGSFFLYSKLTVDKSRWQQGNVFSCSVMHEALHNRFTQKSLSLSPGGGGGSGGGGSQVQLVQSGGGLVQAGGSLSLSCAFSGRTFSMYTMGWFRQAPGKEREFVAANRGRGLSPDIADSVNGRFTISRDNAKNTLYLQMDSLKPEDTAVYYCAADLQYGSSWPQRSSAEYDYWGQGTTVTVSS
